Laboratory results: patent US20080102459A1, “Method of Screening Antiobesity Agents” (ASTELLAS PHARMA INC., priority 2004, published 2008)

Experiments:
[1] = tested on: AGF gene; assay: Amount of AGF gene expressed in C2C12 cells by quantitative PCR; format: cell-based, mouse; conditions: 48 hours, compensated by cyclophilin, insulin at 100 nmol/L
Procedure: C2C12 cells (ATCC No.: CRL-1772) were added to a 24-well collagen-coated plate (ASAHI TECHNO GLASS) to become 20000 cells per well, and cultured with a Dulbecco's modified Eagle's medium (DMEM) supplemented with 15% fetal bovine serum, for one day. After insulin (Biomedical Technologies Inc) was added to the medium to a final concentration of 100 nmol/L, or after the medium was changed to the culture supernatant of 3T3-L1 prepared in Example 11, the C2C12 cells were cultured for 48 hours. As a control, the C2C12 cells were cultured with DMEM supplemented with 15% fetal bovine serum for 48 hours, without such treatments. After the cultivation, total RNAs were prepared from treated cells using an RNeasy Mini Kit (Qiagen) in accordance with a protocol attached thereto, and 500 ng thereof was converted to cDNAs using a Thermoscript RT-PCR system kit (Invitrogen).
Amounts of AGF gene expressed in C2C12 cells were measured by a quantitative PCR, using DNAs of SEQ ID NOS: 29 and 30 as primers for amplifying the mouse AGF, cDNAs (derived from culture supernatants of C2C12 cells) prepared in Example 12 as a template, and a sequence detector (ABI PRISM 7900; Applied Biosystems). […]

[2] = tested on: ATDC5 cells; assay: Binding of AGF protein to cell line, flow cytometry; conditions: protein 10 μg/mL, 4° C., 30 minutes; PI negative cells
Procedure: ATDC5 cells were cultured in a growth medium (DMEM/F12 with 5% FCS) to become subconfluent, and removed from a plate by a cell scraper. The cells were washed twice with an FCM buffer (0.1% BSA/1 mmol/L CaCl2/1 mmol/L MgCl2/PBS), and reacted with or without the mouse AGF protein or the human AGF protein at 4° C. for 30 minutes, at a final concentration of 10 μg/mL of the protein. The cells were washed with the FCM buffer, and reacted with fluorescein isothiocyanate (FITC)-labeled M2 antibody (Sigma) at 4° C. for 30 minutes, at a final concentration of 10 μg/mL. The cells were washed three times with the FCM buffer, and propidium iodide (PI) was added to the cells at a final concentration of 1 μg/mL, to stain death cells. The cells were analyzed using a flow cytometer (Cytomics FC 500; Beckman Coulter, Inc.), and an FITC intensity derived from PI negative cells other than death cells was measured.
Since the FLAG sequence was added to the human AGF protein and the mouse AGF protein, when the M2 antibody specific to the FLAG sequence was used, the FITC-labeled M2 antibody bound to the AGF protein which bound to cells, and thus, the fluorescence intensity of cells to which the AGF protein bound was increased. […]

[3] = tested on: MAPK; assay: MAPK phosphorylation by AGF stimulation in HUVEC; format: cell-based, human; conditions: HUVEC instead of C2C12
[4] = tested on: MAPK p42; assay: MAPK phosphorylation by AGF stimulation, Western blotting, C2C12 cells differentiated into muscle; format: cell-based, mouse; conditions: AGF protein 1 μg/mL, 10 minutes, versus PBS
Procedure: (§1) C2C12 cells were cultured with a growth medium (DMEM supplemented with 10% FCS) in a type I collagen coated 12-well plate to become confluent. After the medium was changed to a differentiation medium (DMEM supplemented with 2% horse serum), the C2C12 cells were cultured for 7 days to differentiate them into muscle. The cells were cultured in a serum-free medium containing 1% BSA, and the medium was changed to the same medium. The AGF protein (final concentration=1 μg/mL) or an equal volume of PBS was added. After 10 minutes, the medium was remove by suction, and the reaction was stopped by adding 50 μL of a solution for cell lysis [50 mmol/L HEPES (pH7.2), 1% Triton X-100, 10% glycerol, 10 mmol/L Na4P2O7, 100 mmol/L NaF, 100 μmol/L Na3VO4, 40 mmol/L EDTA, 50 μg/mL aprotinin, 1 mmol/L phenylmethyl sulfonyl fluoride (PMSF), 0.1 mmol/L leupeptin, and 25 μmol/L pepstatin A] to the cells. To each cell lysate sample obtained, an SDS-sample buffer [20% glycerol, 130 mmol/L Tris-HCl (pH6.8), 10% 2-mercaptoethanol, 6% SDS, and 0.2 mg/mL bromphenol blue] was added, and each sample was subjected to SDS-PAGE and blotted to a polyvinylidene fluoride (PVDF) membrane. Western blotting was carried out, using an anti-phosphorylated MAPK p38 antibody (Cell signaling #9211), an anti-phosphorylated MAPK p42/p44 antibody (Cell signaling #9101), an anti-MAPK p38 antibody (Cell signaling #9212), or an anti-MAPK p42/44 antibody (Cell signaling #9102) as the first antibody and an HRP-labeled anti-mouse IgG antibody (Example 9) as the second antibody, to detect a phosphorylation of MAPK p38, MAPK p42, and MAPK p44. The result of Western blotting was scanned using a scanner, and a concentration of each phosphorylated band was quantitated by an image analyzing software.

[5] = tested on: MAPK p38; assay: as above; format: cell-based, mouse; conditions: AGF protein 1 μg/mL, 10 minutes, versus PBS
Procedure: as §1

[6] = tested on: MAPK p44; assay: as above; format: cell-based, mouse; conditions: AGF protein 1 μg/mL, 10 minutes, versus PBS
Procedure: as §1

[7] = tested on: MAPK; assay: MAPK phosphorylation by AGF stimulation in ATDC5; format: cell-based; conditions: ATDC5 instead of C2C12

Molecule: insulin
- induction of AGF expression in comparison with untreated control [1]: approximately 6 times

B1: mouse AGF protein: FLAG-tagged recombinant mouse angiopoietin-related growth factor purified from HEK293 culture supernatant (protein)
chain: ARCRVTLVLSPQKATSAVCRSSEATQDSELATLRMRLGRHEELLRALQRRAAEGGALADEVRALREHSLTLNTRLGQLRAQLQQEARAEPDLGAEPAAALGLLAERALDAEAEARRTTARLQQLDAQLREHAQLMSQHSSLLGRLQRACAGPERGQQQVLPLPLAPLVPLSLVGSASNTSRRLDQTPEHQREQSLRQQGPPSSLLPTGHLAVPTRPVGPWRDCAEAHGAGHWQSGVYDLRLGRRVVAVWCEQQQEGGGWTVIQRRQDGSVNFFTNWQHYKAGFGRPEGEYWLGLEPVHQVTSRGDHELLILLEDWGGRAARAHYDSFSLEPESDHYRLRLGQYHGDAGDSLSWHNDKPFSTVDRDRDSYSGNCALYHRGGWWYHACAHSNLNGVWYHGGHYRSRYQDGVYWAEFRGGAYSLKKAVMLTRLVRL
modifications: left off: small tags and cut ends
notes: FLAG-tagged recombinant mouse angiopoietin-related growth factor purified from HEK293 culture supernatant
- increase of the fluorescence intensity (FITC-labeled M2 antibody) of cells [2]: 1.5 times

B2: AGF protein: angiopoietin-related growth factor protein, species not stated in Example 16 (protein, UniProt Q8NI99 21-470, looked up)
Angiopoietin-related protein 6: RAGAPRCTYTFVLPPQKFTGAVCWSGPASTRATPEAANASELAALRMRVGRHEELLRELQRLAAADGAVAGEVRALRKESRGLSARLGQLRAQLQHEAGPGAGPGADLGAEPAAALALLGERVLNASAEAQRAAARFHQLDVKFRELAQLVTQQSSLIARLERLCPGGAGGQQQVLPPPPLVPVVPVRLVGSTSDTSRMLDPAPEPQRDQTQRQQEPMASPMPAGHPAVPTKPVGPWQDCAEARQAGHEQSGVYELRVGRHVVSVWCEQQLEGGGWTVIQRRQDGSVNFFTTWQHYKAGFGRPDGEYWLGLEPVYQLTSRGDHELLVLLEDWGGRGARAHYDGFSLEPESDHYRLRLGQYHGDAGDSLSWHNDKPFSTVDRDRDSYSGNCALYQRGGWWYHACAHSNLNGVWHHGGHYRSRYQDGVYWAEFRGGAYSLRKAAMLIRPLKL
- phosphorylation of MAPK [3]: promoted
- increase of phosphorylation in phosphorylated MAPK p42 [4]: 3.4 times
- increase of phosphorylation in phosphorylated MAPK p38 [5]: 1.6 times
- increase of phosphorylation in phosphorylated MAPK p44 [6]: 4.3 times
- phosphorylation of MAPK [7]: promoted

B3: human AGF protein: FLAG-tagged recombinant human angiopoietin-related growth factor purified from HEK293 culture supernatant (protein)
chain: RAGAPRCTYTFVLPPQKFTGAVCWSGPASTRATPEAANASELAALRMRVGRHEELLRELQRLAAADGAVAGEVRALRKESRGLSARLGQLRAQLQHEAGPGAGPGADLGAEPAAALALLGERVLNASAEAQRAAARFHQLDVKFRELAQLVTQQSSLIARLERLCPGGAGGQQQVLPPPPLVPVVPVRLVGSTSDTSRMLDPAPEPQRDQTQRQQEPMASPMPAGHPAVPTKPVGPWQDCAEARQAGHEQSGVYELRVGRHVVSVWCEQQLEGGGWTVIQRRQDGSVNFFTTWQHYKAGFGRPDGEYWLGLEPVYQLTSRGDHELLVLLEDWGGRGARAHYDGFSLEPESDHYRLRLGQYHGDAGDSLSWHNDKPFSTVDRDRDSYSGNCALYQRGGWWYHACAHSNLNGVWHHGGHYRSRYQDGVYWAEFRGGAYSLRKAAMLIRPLKL
modifications: left off: small tags and cut ends
notes: FLAG-tagged recombinant human angiopoietin-related growth factor purified from HEK293 culture supernatant
- increase of the fluorescence intensity (FITC-labeled M2 antibody) of cells [2]: 8.1 times
